Measured values published in patent publication US20240376218A1 (published 2024).

Legend:
human CCR8 [1] = target: T1, human CCR8 (human, UniProt P51685 1-355); assay: cell-based or functional assay
human CCR8 [2] = target: T1, human CCR8; assay: cell-based or functional assay; remark: listed apart in the source
human CCR8 [3] = target: T2, human CCR8 (human, UniProt P51685 1-355); assay: FACS, HuT78 cells endogenously expressing human CCR8
T2 construct: also called hCCR8; P51685_CCR8_HUMAN

[4] = target: T3, FcRn immobilized on FcRn column (Roche, Order No. 8128057001); assay: FcRn affinity chromatography, linear pH gradient
T3 construct: bought prepacked column; also called immobilized FcRn
T3 sequence (P55899 24-297, chain 1 of 2): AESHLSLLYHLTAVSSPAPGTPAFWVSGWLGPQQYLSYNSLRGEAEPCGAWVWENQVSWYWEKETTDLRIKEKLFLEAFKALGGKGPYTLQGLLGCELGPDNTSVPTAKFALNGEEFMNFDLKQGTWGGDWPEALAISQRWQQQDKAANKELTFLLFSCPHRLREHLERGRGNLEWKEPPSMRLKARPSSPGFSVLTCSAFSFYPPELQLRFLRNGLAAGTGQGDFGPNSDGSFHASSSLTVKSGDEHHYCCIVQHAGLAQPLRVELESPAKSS
T3 sequence (P61769 21-119, chain 2 of 2, further chain): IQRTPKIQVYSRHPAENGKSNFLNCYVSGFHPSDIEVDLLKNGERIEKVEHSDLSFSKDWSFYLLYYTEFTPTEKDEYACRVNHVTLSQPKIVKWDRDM
Experimental: 30 μL of each antibody (1 mg/mL in equilibration buffer) was applied to the column.

B1: TPP-20955 (antibody, human IgG1, lambda, V domains shown)
VH: EVQLLESGGGLVQPGGSLRLSCAASGFTFSSYGMHWVRQAPGKGLEWVSAIKWGGGSHGYADSVKGRFTISRDNSKNTLYLQMNSLRAEDTAVYYCARGHHKGYDGRFFDYWGQGTLVTVSS
VL: QSVLTQPPSVSGAPGQRVTISCTGSSSNIGAGYNVHWYQQLPGTAPKLLIYTNNRRPSGVPDRFSGSKSGTSASLAISGLRSEDEADYYCAAWDASLSGWVFGGGTKLTVLG
Human CCR8 [1]
  Ca flux assay Span ratio (from max to min), block of signaling induced by CCL1 at 60 ng/ml; CHO cells expressing human CCR8: ~11400
Human CCR8 [2]
  Ca flux assay IC50 (nM), block of signaling induced by CCL1 at 60 ng/ml; CHO cells expressing human CCR8: 0.52 nM

B2: TPP-27495 (antibody, human IgG1, lambda)
heavy: EVQLLESGGGLVQPGGSLRLSCAASGFTFSSYGMHWVRQAPGKGLEWVSAINWNGGSTGYADSVKGRFTISRDNSKNTLYLQMNSLRAEDTAVYYCARGHHSGYDGRFFDYWGQGTLVTVSSASTKGPSVFPLAPSSKSTSGGTAALGCLVKDYFPEPVTVSWNSGALTSGVHTFPAVLQSSGLYSLSSVVTVPSSSLGTQTYICNVNHKPSNTKVDKKVEPKSCDKTHTCPPCPAPELLGGPSVFLFPPKPKDTLYITREPEVTCVVVDVSHEDPEVKFNWYVDGVEVHNAKTKPREEQYNSTYRVVSVLTVLHQDWLNGKEYKCKVSNKALPAPIEKTISKAKGQPREPQVYTLPPSRDELTKNQVSLTCLVKGFYPSDIAVEWESNGQPENNYKTTPPVLDSDGSFFLYSKLTVDKSRWQQGNVFSCSVMHEALHNHYTQKSLSLSPGK
light: not shown
notes: 70% afucosylated
Human CCR8 [3]
  EC50: 3.25 nM

B3: TPP-27495 (antibody, human IgG1, lambda)
heavy: EVQLLESGGGLVQPGGSLRLSCAASGFTFSSYGMHWVRQAPGKGLEWVSAINWNGGSTGYADSVKGRFTISRDNSKNTLYLQMNSLRAEDTAVYYCARGHHSGYDGRFFDYWGQGTLVTVSSASTKGPSVFPLAPSSKSTSGGTAALGCLVKDYFPEPVTVSWNSGALTSGVHTFPAVLQSSGLYSLSSVVTVPSSSLGTQTYICNVNHKPSNTKVDKKVEPKSCDKTHTCPPCPAPELLGGPSVFLFPPKPKDTLYITREPEVTCVVVDVSHEDPEVKFNWYVDGVEVHNAKTKPREEQYNSTYRVVSVLTVLHQDWLNGKEYKCKVSNKALPAPIEKTISKAKGQPREPQVYTLPPSRDELTKNQVSLTCLVKGFYPSDIAVEWESNGQPENNYKTTPPVLDSDGSFFLYSKLTVDKSRWQQGNVFSCSVMHEALHNHYTQKSLSLSPGK
light: not shown
modifications: 70% afucosylated
[4]
  pH at Elution: 7.88 pH
